# Measured values from the emibetuzumab library of Makowski et al. (2022).
# B1: VH:VL chains; a variant is named by its letters at X, in order (parent)
# chain 1: QVQLVQSGAEVKKPGASVKVSCKASGYTFTDYXMHWVRQAPGQGLEWMGXVNPNXXXTTYNQKFEGRVTMTTDTSTSTAYMELRSLRSDDTAVYYCARXNXLDXWGQGTTVTVSS
# chain 2: DIQMTQSPSSLSASVGDRVTITCSVSSSVSSIYLHWYQQKPGKAPKLLIYSTSNLASGVPSRFSGSGSGTDFTLTISSLQPEDFATYYCQVYSGYPLTFGGGTKVEIK
# Variants of: B1
# Assay: yeast display scFab, FACS + sequencing
# How it was run: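 Non-specific binding was called from deep sequencing of sorted yeast cells displaying a heavy-chain CDR mutant scFab library. Cells labelled with anti-Myc and biotinylated ovalbumin (260 μg/mL in PBSB, 3 h, room temperature) or soluble membrane proteins (130 μg/mL, 20 min on ice) were FACS-sorted, collecting the top 25% and bottom 10% of binders from two replicates. A sequence was positive when present in ≥3 of 4 pooled positive samples and absent from all negatives, and negative under the converse rule.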
row,Variant,non-specific binding call
1,DRGRDFGV,no binding
2,FRGRDFLD,binds
3,FRGRDFLF,binds
4,FRGRDFSA,binds
5,FRGRDFVA,binds
6,YRGRDFVD,binds
7,FRGRDFVS,binds
8,YRGRDSAS,no binding
9,FRGRDSGY,binds
10,DRGRDSSA,no binding
11,FRGRDSSF,binds
12,YRGRDSSS,binds
13,FRGRDSVA,binds
14,YRGRDSVS,binds
15,YRGRDSWD,binds
16,FRGRDSWS,binds
17,FRGRDVAV,binds
18,YRGRDVGY,binds
19,FRGRDVVV,binds
20,FRGRDYAA,binds
21,FRGRDYGA,binds
22,FRGRDYGD,binds
23,VRGRDYGD,binds
24,FRGRDYGF,binds

row,Variant,non-specific binding call
1,FRGRDYGS,binds
2,YRGRDYGV,binds
3,FRGRDYGY,binds
4,ARGRGAAD,binds
5,FRGRGAAS,binds
6,ARGRGAAS,binds
7,FRGRGAAY,binds
8,FRGRGAGA,binds
9,SRGRGAGF,binds
10,FRGRGAGS,binds
11,FRGRGALA,binds
12,FRGRGALF,binds
13,YRGRGALF,binds
14,VRGRGALF,binds
15,YRGRGALS,binds
16,VRGRGALS,binds
17,FRGRGALS,binds
18,FRGRGALY,binds
19,FRGRGASD,binds
20,YRGRGASF,binds
21,FRGRGASV,binds
22,SRGRGAVD,binds
23,YRGRGAVF,binds
24,SRGRGAVS,binds

row,Variant,non-specific binding call
1,FRGRGAVY,binds
2,SRGRGAWA,binds
3,SRGRGAWD,binds
4,FRGRGAWD,binds
5,YRGRGAWF,binds
6,SRGRGAWF,binds
7,FRGRGAWF,binds
8,FRGRGAWS,binds
9,SRGRGAWS,binds
10,ARGRGAWV,binds
11,FRGRGAWV,binds
12,SRGRGAWY,binds
13,FRGRGDGD,binds
14,FRGRGDGY,binds
15,VRGRGDLA,no binding
16,FRGRGDLS,binds
17,YRGRGDSV,no binding
18,FRGRGDVD,binds
19,FRGRGDVV,binds
20,DRGRGDVV,no binding
21,FRGRGDWV,no binding
22,DRGRGDWV,no binding
23,VRGRGFAA,binds
24,SRGRGFAA,binds

row,Variant,non-specific binding call
1,YRGRGFAD,binds
2,YRGRGFAS,binds
3,YRGRGFAY,binds
4,YRGRGFGF,binds
5,YRGRGFGS,binds
6,YRGRGFGV,binds
7,FRGRGFGV,binds
8,YRGRGFGY,binds
9,VRGRGFLD,binds
10,FRGRGFLS,binds
11,YRGRGFLV,binds
12,FRGRGFSA,binds
13,YRGRGFSA,binds
14,YRGRGFSD,binds
15,FRGRGFSV,binds
16,SRGRGFVA,binds
17,YRGRGFVA,binds
18,FRGRGFVA,binds
19,YRGRGFVD,binds
20,YRGRGFVV,binds
21,VRGRGFVV,binds
22,YRGRGFVY,binds
23,YRGRGFWF,binds
24,ARGRGSAA,binds

row,Variant,non-specific binding call
1,FRGRGSAA,binds
2,DRGRGSAD,binds
3,FRGRGSAD,binds
4,FRGRGSAF,binds
5,YRGRGSAF,binds
6,FRGRGSAV,binds
7,FRGRGSAY,binds
8,YRGRGSAY,binds
9,SRGRGSGA,binds
10,FRGRGSGF,binds
11,FRGRGSGV,binds
12,FRGRGSLF,binds
13,FRGRGSLS,binds
14,SRGRGSLS,binds
15,FRGRGSLV,binds
16,FRGRGSSA,binds
17,FRGRGSSD,binds
18,YRGRGSSF,binds
19,SRGRGSSS,binds
20,ARGRGSSS,binds
21,FRGRGSSY,binds
22,ARGRGSVA,binds
23,SRGRGSVD,binds
24,FRGRGSVD,binds

row,Variant,non-specific binding call
1,FRGRGSVF,binds
2,FRGRGSVS,binds
3,FRGRGSVV,binds
4,FRGRGSVY,binds
5,YRGRGSVY,binds
6,SRGRGSWD,binds
7,FRGRGSWS,binds
8,FRGRGSWV,binds
9,YRGRGSWY,binds
10,YRGRGVAA,binds
11,YRGRGVAV,binds
12,VRGRGVAV,binds
13,SRGRGVGA,binds
14,YRGRGVGA,binds
15,FRGRGVGA,binds
16,FRGRGVGD,binds
17,YRGRGVGD,binds
18,YRGRGVGF,binds
19,YRGRGVGS,binds
20,YRGRGVGY,binds
21,VRGRGVGY,binds
22,YRGRGVLF,binds
23,SRGRGVLV,binds
24,YRGRGVSD,binds

row,Variant,non-specific binding call
1,YRGRGVSS,binds
2,VRGRGVSY,binds
3,YRGRGVVD,binds
4,YRGRGVVY,binds
5,YRGRGVWV,binds
6,VRGRGYAA,binds
7,YRGRGYAA,binds
8,FRGRGYAV,binds
9,YRGRGYAY,binds
10,FRGRGYGA,binds
11,YRGRGYGA,binds
12,SRGRGYGD,binds
13,YRGRGYGF,binds
14,YRGRGYGS,binds
15,VRGRGYGV,binds
16,SRGRGYSV,binds
17,YRGRGYSV,binds
18,FRGRGYVA,binds
19,YRGRGYVS,binds
20,FRGRGYVV,binds
21,YRGRGYWA,binds
22,FRGRGYWV,binds
23,YRGRGYWV,binds
24,YRGRGYWY,binds

row,Variant,non-specific binding call
1,YRGRSAAY,binds
2,YRGRSAGA,binds
3,YRGRSAGS,binds
4,YRGRSAGV,binds
5,YRGRSAGY,binds
6,YRGRSALA,binds
7,YRGRSASS,binds
8,YRGRSASV,binds
9,YRGRSASY,binds
10,YRGRSAWD,binds
11,YRGRSAWF,binds
12,VRGRSAWS,no binding
13,YRGRSAWV,binds
14,ARGRSDAV,no binding
15,ARGRSDVA,no binding
16,DRGRSDVA,no binding
17,VRGRSDVF,no binding
18,VRGRSDWV,no binding
19,YRGRSFAV,binds
20,YRGRSFGV,binds
21,YRGRSSAA,binds
22,VRGRSSAA,binds
23,FRGRSSAA,binds
24,FRGRSSAF,binds

row,Variant,non-specific binding call
1,VRGRSSGS,binds
2,FRGRSSGV,binds
3,FRGRSSLA,binds
4,VRGRSSLF,binds
5,YRGRSSLY,binds
6,YRGRSSSV,binds
7,FRGRSSVA,binds
8,VRGRSSVV,no binding
9,YRGRSSWD,binds
10,YRGRSSWS,binds
11,FRGRSYVD,binds
12,YRGRTAAA,binds
13,YRGRTAAD,binds
14,YRGRTAAF,binds
15,YRGRTAAV,binds
16,YRGRTAAY,binds
17,YRGRTAGV,binds
18,YRGRTSLD,binds
19,VRGTDAGV,no binding
20,VRGTDAVV,no binding
21,YRGTGAGV,binds
22,VRGTGAVY,binds
23,VRGTGDWD,no binding
24,VRGTGFGA,binds

row,Variant,non-specific binding call
1,FRGTGFVD,binds
2,VRGTGSAD,binds
3,VRGTGSGA,binds
4,FRGTGSGD,binds
5,YRGTGSVD,binds
6,FRGTGSWA,binds
7,VRGTGSWD,binds
8,VRGTGVAV,binds
9,VRGTGYAS,binds
10,FRGTSFGD chain 1 T58I,binds
11,FRKAAVAV,binds
12,YRKEAAAA,binds
13,YRKEAAWV,binds
14,YRKEGAAA,binds
15,SRKEGAAY,no binding
16,YRKENYGD,binds
17,YRKESAVY,binds
18,YRKGAALA,binds
19,YRKGAASD,binds
20,SRKGAASD,binds
21,YRKGAAVV,binds
22,YRKGASAF,binds
23,YRKGASVD,binds
24,YRKGDAGD,binds

row,Variant,non-specific binding call
1,FRKGDASD,binds
2,YRKGDSGD,binds
3,YRKGDSLD,binds
4,FRKGGAAA,binds
5,YRKGGAAS,binds
6,YRKGGAAV,binds
7,YRKGGAAY,binds
8,YRKGGAGF,binds
9,FRKGGAGS,binds
10,YRKGGAGS,binds
11,YRKGGAVD,binds
12,YRKGGAVV,binds
13,YRKGGAWF,binds
14,YRKGGAWV,binds
15,YRKGGAWY,binds
16,SRKGGDAA,no binding
17,YRKGGDLY,no binding
